Results on 2 molecules are retold here after US20250258178A1 (SHIONOGI, published 2025).

In test [1] the target is T1, Peptide #16 (human).
T1 construct: 15-mer of human HRG on the peptide microarray; the printed position spans only 14 residues
T1 peptide: HPHGHHPHGHHPHCH
The test can be described thus: peptide microarray, fluorescent anti-mouse IgG. As to the method:
(§1) An overlapping peptide scanning method was performed to find out specific antibody-binding peptide epitopes. The amino acid sequence of the HRG protein was obtained in NCBI protein database. PEPperPrint (registered trademark) (Heidelberg, Germany) was commissioned to prepare PEPperCHIP peptide microarrays designed from HRG protein sequences. Each peptide consisted of an overlapping peptide library having 15 amino acid residues overlapping 14 amino acid residues and was extended at the N- and C-terminus with a neutral GSGSGSG linker to ensure that the peptides were separated from each other. […] After treatment of 21 types of anti-HRG monoclonal antibodies, it stained with an anti-mouse IgG polyclonal secondary antibody followed by reading fluorescence intensity on a scanner to quantify protein-antibody binding.
(§2) Each microarray was processed as follows. Before incubation with a sample, a standard buffer was applied on slides followed by treating with a blocking buffer. The microarray was treated with a fluorescently-labeled anti-mouse IgG secondary antibody followed by the measurement of background fluorescence intensity caused by non-specific interactions using a scanner.
(§3) The microarray was incubated with the 21 types of anti-HRG monoclonal antibodies. The microarray was stained with a fluorescently labeled anti-mouse IgG secondary antibody. The fluorescence intensity at each position was measured by a scanner.

For test [2], the target named is T2, Peptide #26 (human).
T2 construct: 15-mer of human HRG printed on a PEPperCHIP peptide microarray
T2 peptide: HPHCHDFQDYGPCDP
The test can be described thus: peptide microarray, fluorescent anti-mouse IgG. As to the method: as §1, §2, §3

Test [3] concerns the target T3, Peptide #2 (human).
T3 construct: 15-mer of human HRG printed on a PEPperCHIP peptide microarray
T3 peptide: DHSHGPPLPQGPPPL
The test can be described thus: peptide microarray, fluorescent anti-mouse IgG. As for the experimental part: as §1, §2, §3

The target of test [4] is T4, Peptide #8 (human).
T4 construct: 15-mer of human HRG printed on a PEPperCHIP peptide microarray
T4 peptide: PLPQGPPPLLPMSCS
The experiment in a line: peptide microarray, fluorescent anti-mouse IgG. As for the experimental part:
as §1, §2, §3

The target in test [5] is T5, human histidine-rich glycoprotein (HRG), purified from human plasma (human, UniProt P04196 19-525).
T5 construct: also called human purified HRG; human purified HRG protein
T5 sequence: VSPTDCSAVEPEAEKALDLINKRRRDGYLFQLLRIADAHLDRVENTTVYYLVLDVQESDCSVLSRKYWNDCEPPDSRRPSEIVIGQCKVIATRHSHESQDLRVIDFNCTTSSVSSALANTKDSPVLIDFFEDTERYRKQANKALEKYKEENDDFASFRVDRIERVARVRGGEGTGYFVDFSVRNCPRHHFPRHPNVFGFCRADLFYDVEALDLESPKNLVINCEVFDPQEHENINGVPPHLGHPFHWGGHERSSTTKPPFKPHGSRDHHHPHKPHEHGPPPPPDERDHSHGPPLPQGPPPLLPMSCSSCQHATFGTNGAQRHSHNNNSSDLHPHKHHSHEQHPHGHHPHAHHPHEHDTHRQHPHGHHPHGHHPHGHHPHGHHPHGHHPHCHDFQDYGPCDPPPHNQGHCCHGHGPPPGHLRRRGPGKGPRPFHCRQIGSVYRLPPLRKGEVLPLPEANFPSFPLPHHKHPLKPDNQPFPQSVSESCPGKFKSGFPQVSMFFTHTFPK
The test can be described thus: sandwich ELISA, HRG captured by solid phase 9-1F. As for the experimental part: (§4) The capture antibody solution was dispensed at 25 μL per well into 384-well Maxisorp plates (NUNC), and the plates were incubated at room temperature for 3 hours. The plates were washed twice with 120 μL of washing solution per well (0.05% Tween 20-containing PBS). A blocking solution (1% BSA-containing PBS) was dispensed at 30 μL per well, and the plates were incubated at room temperature for 3 hours. The blocking solution was removed followed by dispensing the standard substance for evaluation at 20 μL per well (n=2), and the plates were incubated at room temperature for 3 hours. After washing the plates four times with the washing solution as described above, the solution of each detector antibody was dispensed at 10 μL per well, followed by dispensing a horseradish peroxidase-streptavidin solution (0.05 μg/mL) at 10 μL per well, and the plates were incubated at room temperature for 1 hour. After washing the plates four times with the washing solution as described above, a chromogenic substrate solution (TMB (3,3′,5,5′-tetramethylbenzidine)) was dispensed at 20 μL per well followed by incubating the plates at room temperature for 10 minutes, then a reaction stop solution 0.5 M H₂SO₄ was added at 20 μL/well, and the absorbance at 450 nm was measured.
(§5) The results regarding the evaluation of combinations chosen from 21 types of anti-HRG monoclonal antibodies are shown in Table 1. In Table 1, the absorbance at a wavelength of 450 nm of each combination was determined as follows: less than 1.0 OD: −, 1.0 OD or more and less than 2.0 OD: +, 2.0 OD or more and less than 3.0 OD: ++, and 3.0 OD or more: +++. The combinations of antibodies which could construct a sandwich ELISA system having enough level of absorbance change were 86 sets evaluated as ++ or +++ in Table 1.
(In general: An ELISA detects its analyte on a solid surface through an enzyme-linked reagent.)

The target in test [6] is T5, human histidine-rich glycoprotein …. The experiment in a line: sandwich ELISA, HRG captured by solid phase 42-10D. As for the experimental part:
as §4, §5

Bounds are passed on as bounds.

B1: anti-HRG monoclonal antibody 75-2D (antibody, V domains shown)
VH: QVQLQQSGAELMKPGASVKISCKATGYTFSSYWIEWVKQRPGHGLEWIGEILPGSGRTNYNEKFKGKATFTADTSSNTAYMQLSSLTSEDSAVYYCARYSYFYYFDYWGQGTTLTVSS
VL: DNVLTQSPAIMSASLGERVTMTCTASSSVSSSYLHWYQQKPGSSPKLWIYSTSNLASGVPARFSGSGSGTSYSLTISSMEAEDAATYYCHQYHRSPWTFGGGTKLEIK
notes: Mouse hybridoma monoclonal; also called clone No. 75-2D
With B1, the binding result in test [1] and in test [2] was “binds” throughout.

B2: anti-HRG monoclonal antibody 69-1A (antibody, V domains shown)
VH: EVKLEESGGGLVQPGGSMKLSCAASGFTFSDAWMDWVRQSPEKGLEWVAEIRSKANNHGTYYAESVKGRFTISRDDSKSSVYLRMNSLSAEDTGIYYCTRPFAYWGQGTLVTVSA
VL: DVVVTQTPLSLPVSLGDQASISCRSSQSLVHIDGNTYFHWYVQKPGQSPKLLIYKVSNRFSGVPDRFSGSGSGTDFTLKISRVEAEDLGVYFCSQSTHVPLTFGAGTKLELK
notes: Mouse hybridoma monoclonal; also called clone No. 69-1A
As to B2, the binding result in test [3] and in test [4] was “binds” each time. The “absorbance at 450 nm” value in test [5] and in test [6] was less than 1 OD throughout.
